Tested on: K4 kissing-loop RNA reporter
Assay: apparent KD of K4 kissing-loop reporter; higher = weaker reporter binding
Details: Eterna round: R107
Experimental: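 RNA-MaP round R107: designed RNA switches with theophylline, tryptophan, arginine or FMN aptamers are transcribed on-chip within common flanks. They are titrated with a labelled K4 kissing-loop RNA reporter in RNA-MaP buffer (100 mM Tris pH 7.5, 80 mM KCl, 4 mM MgCl2), without ligand or with the indicated ligand. Median apparent KD per design.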

[1] = input ligand: theophylline 20 uM
[2] = input ligand: tryptophan 2.4 mM
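Further: bound reporter read as fluorescence of individual clusters on recovered sequencing chips by microscopy, with normalized cluster intensities fitted with a binding model.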

Sequence	apparent KD of K4 kissing-loop reporter (input ligand: FMN 200 uM) [nM]	apparent KD of K4 kissing-loop reporter (input ligand: arginine 13.2 mM) [nM]	apparent KD of K4 kissing-loop reporter (input ligand: none) [nM]	apparent KD of K4 kissing-loop reporter [1] [nM]	apparent KD of K4 kissing-loop reporter [2] [nM]
AUGAGGAACAGUGAUCCUACUCCAUGGGAAGGAGCGUAGGAUACUACAGGUAGGUCGCCCAGUGAUGUUGGGCGCGUGUUCUUGG [Ermaar]	116	114	115	161	113
AUGAGGAACAGUGAUCCUAUUCCAUGGGAAGGAGCGUAGGAUACUACAGGUAGGUCGCCCAGUGAUGUUGGGCGCGUGUUCUUGG [Soririza]	120	112	113	140	117
AUGCGCGCGGCGGCCGCCACUCGCAUGAGAGUGAUGUUCUCGCCGUGACCGUAAGGUCGCGGUGUGAGGACCGGGCCGGGCUGCG [#2 Same State - Tryptophan B Attempt #22 (HarryS)]	197	71.5	69.7	213	321
AUGCGCGUGCGAUGCAAAUCGCACGCGCAUCGAGGACCGGUACGGCCGCCACUCGCUCGCGCCGAGUGAUGUUCGGCCGGCGAAC [#2 Same State - Tryptophan A Attempt #6 (HarryS)]	258	243	269	327	565
AUGCGUUGCACGGCCGCCACUGAUAUUAUGCUUCAGGAUGCUUCUGAAAGUGAUGUUUUCAGAUCCAGGACCGGGUGCCAAGAUU [theeternabot_sameState_KL_Trp_B_17]	104	88.2	98.3	92.3	98.8
AUGCUUUUAAUAACACUAUAUACAACUGAAGGAGCGACAAUAAAGUCAGGUAGGUCGCAGAAUAAAUGAGUGAUGUUCAUUUUUA [JR_ExcArginiA_Sub009]	82.2	130	92.2	119	63.9
AUGGGCACGUCGGCCGCCACUACACGGUCCCGCGAGGGCCAGUGAUGUUGGUCGACGUGCCGUUGUAGGACCGGGACGUGGCUGU [Teatondi]	125	54.5	79	103	83.3
AUGGGUCCACGAAGGAGCGCCGUGGAGUGAUGUUCCGGUUAGAUCCAGUGAUGUUGGGCCCGGCAGGUAGGUCGCGUGGACUCAU [Exclusion Arginine B GF 23]	720	522	586	729	533
AUGUCUGAUAGCAGUGAUGUUGCUUCGGAUACCAGACGAGAUCAUGUCCCUUGGCAGCUGACACGGCACGUGCUAGGUUAGAUGG [whbob_Ex_Theo_A_th73]	121	115	111	94.7	115
AUGUCUGAUAGCAGUGAUGUUGCUUCGGAUACCAGACGCGAUCAUGUCCCUUGGCAGCUGACACGGCACGUGCUAGGUUAGAUGG [whbob_Ex_Theo_A_th74]	123	94.5	105	112	95.9
AUUAAUAACAGAGGAUAUGCAUUUUUAUUAUUUUUAAAUAUUAAAUGCAGUGAUGUUGCAUAUUAAGCAGAAGGCUGAUUUAUUU [JR_SSFMNB_Sub012]	117	271	211	279	147
AUUAAUAACUGAGGAUAUCGAAAUUAUGUAGUGAUGUUACUGUAAAUUCAAAUUUUCAUUUCUUAACGAGAAGGCAGAAUAAUUA [JR_ExcFMNB_Sub012]	173	185	115	200	86.8
AUUAAUUUCAGAGGAUAUCGUAUUAAUAUUUUAUCUAUCUAUAUAUGCAGUGAUGUUGCAAUAAUUCGAGAAGGCUGAUUUAUAA [JR_ExcFMNB_Sub009]	93.9	101	52.3	91.8	47.7
AUUCAGAUCUGAAGGAGCGCGUUAAGUCAAUGCUUCAUAGAGCAGUGAUGUUGCUCUGAAACGCAGGUAGGUCGCAGAUCUGACC [Arg B SS t17]	295	250	325	288	287
AUUCAUUUCAGAGGAUAUCGAAGGAGAGUGAUGUUCUCCCAUAGCCCAGUGAUGUUGGAAGCUAUUCGAGAAGGCUGUGGGUGGA [Same State FMN B GF 26]	178	270	271	222	216
AUUGUAUACUGAAGGAGCGAGUAGUGGAAACAUAAACUCAUUGCGAGUGAUGUUCGCAGUACUCAGGUAGGUCGCAGUAAUGGUA [Exclusion Arginine B Gf 9]	756	167	528	242	451
AUUUAAUGUAUAGAUUAUAUACAUUAUUCAGAGGAUAUGCAUUGAAGCAGAAGGCUGGAUGUAGUGAUGUUGCAAUUUUAAUUUA [JR_SSFMNA_Sub007]	205	247	218	299	143
AUUUAUUCGAGUGAUGUUCGUGUUUUUUCAGAGGAUAUGCGUAAUAGCAGAAGGCUGUUUUAUAUUAUAUUUUGAUUUUUUUAAA [JR_Nu_ExcFMNA_Sub025]	92.2	123	86.1	106	73.5
AUUUGCUAGAAAGGAUAUAUUAGCUUGGUCACCGCGUCCGAUGGUUAAACUUCGUGAGUGAUGUUCAUAGAAGGUUCAGCCUCGA [theeternabot_exclusion_KL_FMN_B_20]	155	122	146	138	124
AUUUUAAUCGCAGAUACCAGUCCAGAAUGAAUACUAUAGUGAUGUUAUAAUAAAGGGAAGGACCCUUGGCAGCUGUACUAUAUUA [AstrosSsTheB#9]	467	287	445	304	281
AUUUUAGAGUGAUGUUCUAAUUGAUCAGAUACCAGACAAUUAUAAGUCCCUUGGCAGCUGUAGCCGAUAAAUUUAUUUAAUUUAA [JR_SSTheophyA_Sub024]	229	275	302	373	225
